Assay results from the supplement of paper PMC12042874.
± gives the uncertainty stated by the source.

Experiment: amyloid nucleation score (Sup35N fusion, yeast selection) (log enrichment); library NNK3; higher = more nucleation; inactive = no reads after selection
Method in brief: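 Psi-negative yeast expressed Sup35N fused to peptides of 20 random codons. They were induced 24 hours with 100 μM copper sulfate, grown 7 days at 30°C without adenine and uracil, and their plasmid inserts from input and output were Illumina-sequenced. The nucleation score is the DiMSum log enrichment of output over input reads, centred on the mode score of non-aggregating sequences. Sequences with under 100 input reads were excluded.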
With SCNQKMGHLNFCNFFWTLTV the amyloid nucleation score was “inactive”. In the case of ESNVVPLNSHR, the amyloid nucleation score is reported as “inactive”. With GSDSVAGHYFSFVYKVIAEF the amyloid nucleation score was 0.292 ± 0.3. For SLMCLLVRLLIKN, the amyloid nucleation score was “inactive”. With MVTRMCYIACLVFRVWAMCR the amyloid nucleation score was “inactive”. For FLIPYKRQIAQRRYVSLE, the amyloid nucleation score was “inactive”. With TFRTTGM the amyloid nucleation score was “inactive”. With TRCYRASE the amyloid nucleation score was “inactive”. For VYQQSWQVLDFVRWDTERME, the amyloid nucleation score was “inactive”. In the case of ASASY, the amyloid nucleation score is reported as “inactive”. In the case of YLGEHRVVVRNSMSPQPWLS, the amyloid nucleation score is reported as “inactive”. For ADCNWVNNVMSVKGLMSVVM, the amyloid nucleation score was “inactive”. In the case of YSRPMVTL, the amyloid nucleation score is reported as “inactive”. In the case of YMLWDDMVEKYHCLSQRLGR, the amyloid nucleation score is reported as “inactive”. For DWYMTVW, the amyloid nucleation score was “inactive”. For IQANSLLSRLLRLSGNCCWM, the amyloid nucleation score was 0.127 ± 0.8. Work on WNTGETISRRLVVYNFIEMN yielded an amyloid nucleation score of 2.22 ± 0.056. CLVVKLFHTSSCMNSYMRGG showed an amyloid nucleation score of 1.67 ± 0.11. In the case of TFLNRIQWSKWILN, the amyloid nucleation score is reported as “inactive”. For YLRVWPMRVYNMP, the amyloid nucleation score was “inactive”. In the case of ELVGQF, the amyloid nucleation score is reported as “inactive”. In the case of LIIVMFPAVCIVFDFNFTVF, the amyloid nucleation score is reported as “inactive”. For WSSWSRS, the amyloid nucleation score was “inactive”. For SWISR, the amyloid nucleation score was “inactive”. For SLNKHR, the amyloid nucleation score was “inactive”. VVCDNYG gave an amyloid nucleation score of 0.607 ± 0.23. For IVFNGLRSMNRE, the amyloid nucleation score was “inactive”. With RVEIRIIS the amyloid nucleation score was “inactive”. For RKAGR, the amyloid nucleation score was “inactive”. In the case of NMFRRPTVCTVQEQVTEMRV, the amyloid nucleation score is reported as “inactive”. With FYLFIVVRMVVLVTDVIVVG the amyloid nucleation score was “inactive”. Substance FRVKFIMCRHLSPNV has an amyloid nucleation score of 0.682 ± 0.2. With GVADGGMPRNSSWRLSGVVR the amyloid nucleation score was “inactive”. For YGLVGQFSTVGTKQALLLGT, the amyloid nucleation score was “inactive”. In the case of ILFTYCSYINREVLRWMQDS, the amyloid nucleation score is reported as “inactive”. For GWFRSQSMPIALEYLTGPGS, the amyloid nucleation score was “inactive”. With ALQLRVPDDVWLYVCYSRMN the amyloid nucleation score was “inactive”. In the case of LVFKYSKAVSTYWYEGDQVT, the amyloid nucleation score is reported as “inactive”. In the case of RTECYVYKYDALDSRLGYCD, the amyloid nucleation score is reported as -0.18 ± 0.62. For RVRSDGANGWGVVMNACWMS, the amyloid nucleation score was “inactive”. LARWNVIWFFNGNCIFEESV showed an amyloid nucleation score of 1.31 ± 0.074. In the case of GCLQTIADWFNFSNMN, the amyloid nucleation score is reported as “inactive”. For HWMVSCYFSVRLRARLSRRG, the amyloid nucleation score was “inactive”. LLYRWVGFHLIKLSVNAWLS gave an amyloid nucleation score of -1.01 ± 2.4. With LVVTYWEMRLVPADAK the amyloid nucleation score was “inactive”. In the case of VSELPSACDNYIYCCNG, the amyloid nucleation score is reported as 0.326 ± 0.2. Substance SHNGLKTLNGSFLAYLSCRA has an amyloid nucleation score of 0.904 ± 0.16. With CSIARLFWFFPVMPSCIG the amyloid nucleation score was -0.236 ± 1.1. For YCDNYYSLMSTTEEFPRVCV, the amyloid nucleation score was “inactive”. With VYWFRYRSIGTAAS the amyloid nucleation score was “inactive”. For SASVGFGHSSWNPIIGMIRI, the amyloid nucleation score was “inactive”. For VYFSDVV, the amyloid nucleation score was “inactive”. In the case of LLFMYSDMTYTWCIFYGELW, the amyloid nucleation score is reported as “inactive”. With SIGVFRYFVLVLHYWYGISS the amyloid nucleation score was “inactive”. Substance RQDLSHSFSDGRERQHWAKR has an amyloid nucleation score of -0.165 ± 0.81. For DYIYILSW, the amyloid nucleation score was “inactive”. With CVCVGDSDYCSQSVCVTSYR the amyloid nucleation score was “inactive”. With LLGSSFFIRLFWTSSSFAAK the amyloid nucleation score was “inactive”. RVMFMASVWSNCGLWSSGTS gave an amyloid nucleation score of 1.39 ± 0.15. YVFGNWLLCFEHTKMH gave an amyloid nucleation score of 1.1 ± 0.14. With SNDYCRGCVCLDSGMNVCVA the amyloid nucleation score was “inactive”. In the case of MMPDYKPR, the amyloid nucleation score is reported as “inactive”. For CFGRSGPW, the amyloid nucleation score was “inactive”. With TVYLACIC the amyloid nucleation score was “inactive”. For SSFGFKAK, the amyloid nucleation score was “inactive”. With RGVNKRKADVTRGCYSVVLN the amyloid nucleation score was “inactive”. For MWGSM, the amyloid nucleation score was “inactive”. For CHPLGRCALWWCFVPHGRFA, the amyloid nucleation score was “inactive”. For NFLVSIHVFFYCWLSMFTYW, the amyloid nucleation score was “inactive”. With NLPRKGSGWDIHDRRHPWRS the amyloid nucleation score was “inactive”. In the case of ARTGYNGYQFRSGRALEITG, the amyloid nucleation score is reported as “inactive”. With DIERGFGDSCKNGHFAVGSV the amyloid nucleation score was -0.629 ± 1.1. Substance ITSCCFVTLISVMSYGPCFG has an amyloid nucleation score of 2.45 ± 0.089. With IVSWLVRMVSWGVCRK the amyloid nucleation score was “inactive”. With SRHTICHKQNSCRKVLSPPH the amyloid nucleation score was “inactive”. IRDVG showed an amyloid nucleation score of -0.573 ± 1. With HVLNEWKSNTGLVVSSAWFC the amyloid nucleation score was 1.43 ± 0.087. With SPVSNYYDIKVVRDVSGCFT the amyloid nucleation score was “inactive”. For IVCYLSFASLDDLRTRHMCT, the amyloid nucleation score was “inactive”. QIRAIMYVFGISVSAVLGAK gave an amyloid nucleation score of -0.19 ± 0.49. With LYFNVSTTIAIRIRSYSYRV the amyloid nucleation score was -0.299 ± 0.62. For FYFDARRSITLSNSNVVKLW, the amyloid nucleation score was 1.93 ± 0.08. With VQGIPELALMLSRARGRGV the amyloid nucleation score was “inactive”. For DSYYFPRQGWMY, the amyloid nucleation score was “inactive”. With VSPRRGHNVYLIVAARWCVA the amyloid nucleation score was “inactive”. In the case of NFIYILLSIINYWWCTYIVY, the amyloid nucleation score is reported as “inactive”. With NYALWFANI the amyloid nucleation score was “inactive”. In the case of AIPSMSSRTLNQVSPIDPDL, the amyloid nucleation score is reported as 0.706 ± 0.17. For VLRSNKYRITMGMGKKFPAL, the amyloid nucleation score was “inactive”. For VYNIDTRNISFMSASNRTLS, the amyloid nucleation score was “inactive”. With FGIWFGRNLGVGMDTKMSRF the amyloid nucleation score was “inactive”. For GNSHLSCERSCNIKMCMSGG, the amyloid nucleation score was “inactive”. For IYCVNSSAFVLEPF, the amyloid nucleation score was “inactive”. In the case of SQLRP, the amyloid nucleation score is reported as “inactive”. With FCFNGRCIFFYSSSLYVFGF the amyloid nucleation score was “inactive”. For LNILF, the amyloid nucleation score was 0.826 ± 0.11. In the case of TLSLACGSYVQCSMEFLSSG, the amyloid nucleation score is reported as 1.6 ± 0.08. In the case of NSPNTNVPGFSRGAFAGGRH, the amyloid nucleation score is reported as “inactive”. For DFGSDSVDRIPRTGADNSI, the amyloid nucleation score was “inactive”. In the case of CLPSFRGFTTNIMGLIRSRV, the amyloid nucleation score is reported as “inactive”. For YSRSQTMSTACNVVYVFSGQ, the amyloid nucleation score was “inactive”. VNCQCSSEWCHKNSVYFIRY gave an amyloid nucleation score of 2.59 ± 0.087. For WDGLHVCLKSIIGGNSGLEK, the amyloid nucleation score was “inactive”. In the case of VATKQVVQGLMSPNN, the amyloid nucleation score is reported as “inactive”. With MTLCLLSFRGQRSMPLYLWT the amyloid nucleation score was “inactive”. With ETDCRSAQSIC the amyloid nucleation score was “inactive”. With LQYFTYLGQCLKRETHHFLR the amyloid nucleation score was “inactive”. In the case of SDVKSS, the amyloid nucleation score is reported as “inactive”. With LCSSLIM the amyloid nucleation score was “inactive”. With FQRVCYHVWSTKN the amyloid nucleation score was “inactive”. For MNRLNPRYMMIKYMDIQKWW, the amyloid nucleation score was “inactive”. With AMHHSNRSKPVSVIRWMWRC the amyloid nucleation score was “inactive”. For LTFIMLCIS, the amyloid nucleation score was 1.24 ± 0.12. In the case of SGCDLLFFYYHRRTVPLANW, the amyloid nucleation score is reported as “inactive”. In the case of YYDHGNFRCMSTKRPVWQVF, the amyloid nucleation score is reported as “inactive”. In the case of DVLGVSSASERAFGFENRAL, the amyloid nucleation score is reported as “inactive”. With WQCGNVLLSYAQYNAVLVAW the amyloid nucleation score was “inactive”. With QFSSS the amyloid nucleation score was -1.13 ± 1.3. With HTYLFRSMS the amyloid nucleation score was “inactive”. Substance SPAHGLGFDMKMVVFMFGDR has an amyloid nucleation score of 1.54 ± 0.12. For QHYLVYY, the amyloid nucleation score was “inactive”. HKWGCGL gave an amyloid nucleation score of -0.539 ± 1.5. With DKMKQKAQKVEDLHMAIGDD the amyloid nucleation score was “inactive”. In the case of VSDLEERSSILG, the amyloid nucleation score is reported as “inactive”. For HELFRTSHRLRCYFNPHSHI, the amyloid nucleation score was “inactive”. DATDCVRASMFMSFDASRH showed an amyloid nucleation score of 1.29 ± 0.13. Substance IHVMSWKQSYSI has an amyloid nucleation score of 0.949 ± 0.15. With IEGEYLVASAWRFLQSKHAH the amyloid nucleation score was “inactive”. In the case of NLSSNVLTAALK, the amyloid nucleation score is reported as “inactive”. KLCYNNCVNLLII showed an amyloid nucleation score of 0.716 ± 0.13. In the case of VSGSFVYLLCNS, the amyloid nucleation score is reported as “inactive”. ENAYLRSCRVVVKESSNVVV gave an amyloid nucleation score of -0.906 ± 1.4. With HESKTMRKEEIMYTRWYKVL the amyloid nucleation score was “inactive”. For AIVIRLNSVYYYGCGWLLNR, the amyloid nucleation score was “inactive”. For YYAATPGSYLAGGRWITLF, the amyloid nucleation score was 0.219 ± 0.47. With NHVILKNFFLMLQCYNFTTM the amyloid nucleation score was “inactive”. For HQYWEGCSMLYL, the amyloid nucleation score was “inactive”. For GESLQLECLYFTFIKMYVSL, the amyloid nucleation score was “inactive”. With RCLPMG the amyloid nucleation score was “inactive”. With CDEVLTDKLVWGREFILWSD the amyloid nucleation score was “inactive”. With LQEGSN the amyloid nucleation score was “inactive”. For YKRFMIPIKYCGGQRNTDVR, the amyloid nucleation score was “inactive”. Work on KYRVGMSSWFNLAHYGNLCG yielded an amyloid nucleation score of 0.228 ± 0.25. In the case of TFLLCVVDGCCICRRGSCAS, the amyloid nucleation score is reported as 2.2 ± 0.096. GNIAYSVLMWSDCKTCQCDV gave an amyloid nucleation score of 1.82 ± 0.058. In the case of IFLVVPGHDLWNCRRS, the amyloid nucleation score is reported as “inactive”. For RDPDGRIYMYGLDVIQYVTN, the amyloid nucleation score was “inactive”. In the case of LNSSVYVLLRSILPSVWNQL, the amyloid nucleation score is reported as “inactive”. For RGNATGSIKD, the amyloid nucleation score was “inactive”. With RERIYAELFSSWRRSAKGIF the amyloid nucleation score was “inactive”. With SYINHTIPRVLWAITLRYLI the amyloid nucleation score was “inactive”. In the case of YGYVIPSSQLPSWTLQRY, the amyloid nucleation score is reported as “inactive”. In the case of DDVTGKMKKIVCVDSHCQLP, the amyloid nucleation score is reported as “inactive”. For IEVVYNLFWSRTFGAFVTKV, the amyloid nucleation score was “inactive”. For VVCLLALKIYDMLCRCQDVV, the amyloid nucleation score was “inactive”. In the case of NAQDPIGSGYVQ, the amyloid nucleation score is reported as “inactive”. Work on VLLYDECMMFVNSLMFTNSE yielded an amyloid nucleation score of -0.501 ± 0.66. For VFNSSKDLVSEKEPLRYMIG, the amyloid nucleation score was “inactive”. RFSFVTRFRYREQLPLVR showed an amyloid nucleation score of 0.068 ± 0.82. With PGGKVANESMQSSTHDDPGR the amyloid nucleation score was “inactive”.
